Data on two molecules can be found in article PMC9239103, “System-Wide Analysis of the GATC-Binding Nucleoid-Associated Protein Gbn and Its Impact on Streptomyces Development”.

Series [1] has as its target T1, Gbn (SCO1839) (Streptomyces coelicolor A3(2) M145, UniProt Q9RJ29 1-73).
T1 sequence: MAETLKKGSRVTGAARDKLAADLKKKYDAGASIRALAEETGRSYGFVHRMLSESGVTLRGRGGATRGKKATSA
As to the kind of experiment: EMSA; three binding events seen for four motifs; 7.5 nM DNA; EMSA: 10 mM Tris-HCl pH 7.9, 0.1 mM EDTA, 50 mM KCl, 30 C 15 min, 5% PAGE, ethidium bromide; TPM: 10 mM Tris-HCl pH 8.0, 0.1 mM EDTA, 50 mM KCl, 0.5% acetylated BSA. The following applies: protein: recombinant; tags: His6 (pET28a, pGWS1286; printed as both His6-Gbn and Gbn-His6); blunt. (Mobility shift assays separate free from complexed probe on a gel.)

The target in series [2] is T1, Gbn (SCO1839). The series is described as follows: EMSA; half-binding concentration reduced by more than one-third versus N2; 5 nM DNA; EMSA: 10 mM Tris-HCl pH 7.9, 0.1 mM EDTA, 50 mM KCl, 30 C 15 min, 5% PAGE, ethidium bromide; TPM: 10 mM Tris-HCl pH 8.0, 0.1 mM EDTA, 50 mM KCl, 0.5% acetylated BSA. The following applies: protein: recombinant; tags: His6 (pET28a, pGWS1286; printed as both His6-Gbn and Gbn-His6); blunt.

B1: p1839_50Quadruple (dsDNA)
DNA 1: GATGGCGGATCACGGATCGGCCGAATGATCCATAACCAGTGGATCATCCA
DNA 2: TGGATGATCCACTGGTTATGGATCATTCGGCCGATCCGTGATCCGCCATC
B1: the binding result with Gbn (SCO1839) [1] is “binds”.

B2: p1839_50Single_strong (++, GATCWT) (dsDNA)
DNA 1: CTCGACGCCGTCCGGAAGCAGAATGATCCGTTCCGGCTGGAGCGCCTCGA
DNA 2: TCGAGGCGCTCCAGCCGGAACGGATCATTCTGCTTCCGGACGGCGTCGAG
Take B2: the binding result with Gbn (SCO1839) [2] is on record as “binds”.
